To fix the notation:
B1: Lysine-specific demethylase 2B, residues 656 to 722; numbered along this chain, Q8NHM5 (parent)
chain: LPHTAVCLVCGEAGKEDTVEEEEGKFNLMLMECSICNEIIHPGCLKIKESEGVVNDELPNCWECPKC

± gives the uncertainty stated by the source.

The variants in this series derive from B1. The series is described as follows: abundance fitness (aPCA) (normalised: wild type 0, dead -1); higher = more abundant; growth selection in yeast, the domain comes from the species named. Conditions: Homo sapiens.
As to LPHTAVCLVCGEAGKEDTVEEEEGKFNLMLMECSICNEIIHPLCLKIKESEGVVNDELPNCWECPKC [G43L], the abundance fitness was -0.536 ± 0.088.

For the variant LPHTAVCLVCGEAGKEDTVEEEEGKFNLMLMECSICNEIIHPYCLKIKESEGVVNDELPNCWECPKC [G43Y], the abundance fitness was -0.02 ± 0.2.

LPHTAVCLVCGEAGKEDTVEEEEGKFNLMLMECSICNEIIHPVCLKIKESEGVVNDELPNCWECPKC [G43V]: the abundance fitness is -0.302 ± 0.12.

As for LPHTAVCLVCGEAGKEDTVEEEEGKFNLMLMECSICNEIIHPDCLKIKESEGVVNDELPNCWECPKC [G43D], the abundance fitness was -0.064 ± 0.2.

For the variant LPHTAVCLVCGEAGKEDTVEEEEGKFNLMLMECSICNEIIHPRCLKIKESEGVVNDELPNCWECPKC [G43R], the abundance fitness was -0.173 ± 0.065.

For the variant LPHTAVCLVCGEAGKEDTVEEEEGKFNLMLMECSICNEIIHPCCLKIKESEGVVNDELPNCWECPKC [G43C], the abundance fitness was -0.395 ± 0.12.

On to LPHTAVCLVCGEAGKEDTVEEEEGKFNLMLMECSICNEIIHPFCLKIKESEGVVNDELPNCWECPKC [G43F], for which the abundance fitness was -0.558 ± 0.16.

In the case of LPHTAVCLVCGEAGKEDTVEEEEGKFNLMLMECSICNEIIHPPCLKIKESEGVVNDELPNCWECPKC [G43P], the abundance fitness is -0.526 ± 0.15.

Turning to LPHTAVCLVCGEAGKEDTVEEEEGKFNLMLMECSICNEIIHPSCLKIKESEGVVNDELPNCWECPKC [G43S], the abundance fitness is -0.364 ± 0.18.

Take LPHTAVCLVCGEAGKEDTVEEEEGKFNLMLMECSICNEIIHPTCLKIKESEGVVNDELPNCWECPKC [G43T]: the abundance fitness was -0.375 ± 0.11.

Consider LPHTAVCLVCGEAGKEDTVEEEEGKFNLMLMECSICNEIIHPHCLKIKESEGVVNDELPNCWECPKC [G43H], for which the abundance fitness is -0.433 ± 0.32.

On to LPHTAVCLVCGEAGKEDTVEEEEGKFNLMLMECSICNEIIHTGCLKIKESEGVVNDELPNCWECPKC [P42T], for which the abundance fitness was -0.568 ± 0.18.

Regarding LPHTAVCLVCGEAGKEDTVEEEEGKFNLMLMECSICNEIIHRGCLKIKESEGVVNDELPNCWECPKC [P42R], the abundance fitness is -0.134 ± 0.063.

As for LPHTAVCLVCGEAGKEDTVEEEEGKFNLMLMECSICNEIIHYGCLKIKESEGVVNDELPNCWECPKC [P42Y], the abundance fitness turned out to be 0.122 ± 0.27.

For the variant LPHTAVCLVCGEAGKEDTVEEEEGKFNLMLMECSICNEIIHFGCLKIKESEGVVNDELPNCWECPKC [P42F], the abundance fitness is -0.272 ± 0.19.

In the case of LPHTAVCLVCGEAGKEDTVEEEEGKFNLMLMECSICNEIIHQGCLKIKESEGVVNDELPNCWECPKC [P42Q], the abundance fitness was -0.189 ± 0.23.

LPHTAVCLVCGEAGKEDTVEEEEGKFNLMLMECSICNEIIHKGCLKIKESEGVVNDELPNCWECPKC [P42K]: the abundance fitness is -0.285 ± 0.15.

As for LPHTAVCLVCGEAGKEDTVEEEEGKFNLMLMECSICNEIIHHGCLKIKESEGVVNDELPNCWECPKC [P42H], the abundance fitness was found to be 0.019 ± 0.18.

As for LPHTAVCLVCGEAGKEDTVEEEEGKFNLMLMECSICNEIIHWGCLKIKESEGVVNDELPNCWECPKC [P42W], the abundance fitness is -0.32 ± 0.1.

For the variant LPHTAVCLVCGEAGKEDTVEEEEGKFNLMLMECSICNEIIHGGCLKIKESEGVVNDELPNCWECPKC [P42G], the abundance fitness is -0.302 ± 0.076.

Take LPHTAVCLVCGEAGKEDTVEEEEGKFNLMLMECSICNEIIHAGCLKIKESEGVVNDELPNCWECPKC [P42A]: the abundance fitness was -0.34 ± 0.09.

As for LPHTAVCLVCGEAGKEDTVEEEEGKFNLMLMECSICNEIIHCGCLKIKESEGVVNDELPNCWECPKC [P42C], the abundance fitness is -0.355 ± 0.21.

With LPHTAVCLVCGEAGKEDTVEEEEGKFNLMLMECSICNEIIHEGCLKIKESEGVVNDELPNCWECPKC [P42E], the abundance fitness is -0.537 ± 0.093.

As to LPHTAVCLVCGEAGKEDTVEEEEGKFNLMLMECSICNEIIHDGCLKIKESEGVVNDELPNCWECPKC [P42D], the abundance fitness is -0.644 ± 0.22.

Turning to LPHTAVCLVCGEAGKEDTVEEEEGKFNLMLMECSICNEIIHVGCLKIKESEGVVNDELPNCWECPKC [P42V], the abundance fitness is -0.423 ± 0.13.

As to LPHTAVCLVCGEAGKEDTVEEEEGKFNLMLMECSICNEIIHLGCLKIKESEGVVNDELPNCWECPKC [P42L], the abundance fitness was -0.317 ± 0.079.

LPHTAVCLVCGEAGKEDTVEEEEGKFNLMLMECSICNEIIHMGCLKIKESEGVVNDELPNCWECPKC [P42M]: the abundance fitness was -0.52 ± 0.22.

As to LPHTAVCLVCGEAGKEDTVEEEEGKFNLMLMECSICNEIIHPGQLKIKESEGVVNDELPNCWECPKC [C44Q], the abundance fitness is -0.79 ± 0.12.

In the case of LPHTAVCLVCGEAGKEDTVEEEEGKFNLMLMECSICNEIIHPGVLKIKESEGVVNDELPNCWECPKC [C44V], the abundance fitness is -0.906 ± 0.15.

With LPHTAVCLVCGEAGKEDTVEEEEGKFNLMLMECSICNEIIHPGLLKIKESEGVVNDELPNCWECPKC [C44L], the abundance fitness is -0.956 ± 0.16.

With LPHTAVCLVCGEAGKEDTVEEEEGKFNLMLMECSICNEIIHPGALKIKESEGVVNDELPNCWECPKC [C44A], the abundance fitness was -0.779 ± 0.18.

As for LPHTAVCLVCGEAGKEDTVEEEEGKFNLMLMECSICNEIIHPGGLKIKESEGVVNDELPNCWECPKC [C44G], the abundance fitness was -0.764 ± 0.12.

LPHTAVCLVCGEAGKEDTVEEEEGKFNLMLMECSICNEIIHPGWLKIKESEGVVNDELPNCWECPKC [C44W]: the abundance fitness was -0.8 ± 0.16.

As to LPHTAVCLVCGEAGKEDTVEEEEGKFNLMLMECSICNEIIHPGSLKIKESEGVVNDELPNCWECPKC [C44S], the abundance fitness is -0.843 ± 0.14.

On to LPHTAVCLVCGEAGKEDTVEEEEGKFNLMLMECSICNEIIHPGTLKIKESEGVVNDELPNCWECPKC [C44T], for which the abundance fitness was -0.982 ± 0.19.

With LPHTAVCLVCGEAGKEDTVEEEEGKFNLMLMECSICNEIIHPGNLKIKESEGVVNDELPNCWECPKC [C44N], the abundance fitness was -0.815 ± 0.46.

Regarding LPHTAVCLVCGEAGKEDTVEEEEGKFNLMLMECSICNEIIHPGPLKIKESEGVVNDELPNCWECPKC [C44P], the abundance fitness was -0.722 ± 0.12.

Consider LPHTAVCLVCGEAGKEDTVEEEEGKFNLMLMECSICNEIIHPGRLKIKESEGVVNDELPNCWECPKC [C44R], for which the abundance fitness was -0.709 ± 0.11.

In the case of LPHTAVCLVCGEAGKEDTVEEEEGKFNLMLMECSICNEIIHPGMLKIKESEGVVNDELPNCWECPKC [C44M], the abundance fitness is -0.735 ± 0.22.

As for LPHTAVCLVCGEAGKEDTVEEEEGKFNLMLMECSICNEIIHPGYLKIKESEGVVNDELPNCWECPKC [C44Y], the abundance fitness is -0.897 ± 0.44.

Source of the values: the Human Domainome abundance scans (Beltran et al. 2025).
